We go through one molecule from patent US20040047860A1 (published 2004).

Assay [1] deals with recombinant human MCP-1 (human) (UniProt P13500). As to the kind of experiment: BIAcore, 5 nM chemokine over ABN912, bound amount after 8 min. For orientation: SPR reads the build-up and loss of mass on a sensor chip optically.
Assay [2] has the same target. As to the kind of experiment: BIAcore, ABN912 immobilised, recombinant human MCP-1 in solution, n = 30.
Another assay addresses T1, MCP-1 mutant K49A (human, UniProt P13500 24-99).
T1 construct: also called K49 to alanine
As to the kind of experiment: BIAcore, mutant MCP-1 (0.75 to 4 nM) over ABN912 captured on anti-Fcγ.

The next assay deals with Rec dog MCP-1 (dog, UniProt P52203 24-101). Nature of the assay: BIAcore, 5 nM chemokine over ABN912, bound amount after 8 min, n = 3.
Sequence of Rec dog MCP-1 (P52203 24-101 limits assumed): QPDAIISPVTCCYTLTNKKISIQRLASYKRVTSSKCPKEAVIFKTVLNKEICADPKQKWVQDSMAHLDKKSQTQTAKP
Another assay concerns the target Rec pig MCP-1 (pig, UniProt P42831 24-99). Described as above.
Another assay concerns the target Rec guinea pig MCP-1 (guinea pig, UniProt Q08782 24-120, limits assumed). Described as above.
The target of another assay is T2, Rec mouse JE/MCP-1 (mouse, UniProt P10148 24-96, limits assumed).
T2 construct: also called mouse MCP-1
T2 sequence (P10148 24-96 limits assumed): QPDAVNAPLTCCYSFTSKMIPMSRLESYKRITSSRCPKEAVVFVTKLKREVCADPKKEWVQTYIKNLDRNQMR
The description is as above.

The next assay concerns the target Rec rat MCP-1 (rat, UniProt P14844 24-148, limits assumed). Described as above.
A further assay deals with Rec rabbit MCP-1 (rabbit, UniProt P28292 24-125, limits assumed). Described as above.
Sequence of Rec rabbit MCP-1 (P28292 24-125 limits assumed): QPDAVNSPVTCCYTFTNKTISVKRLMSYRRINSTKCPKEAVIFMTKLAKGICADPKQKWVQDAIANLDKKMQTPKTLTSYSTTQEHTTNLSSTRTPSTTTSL
In another assay the target is T3, rh MCP-2 (human, UniProt P80075 24-99).
T3 sequence (looked up): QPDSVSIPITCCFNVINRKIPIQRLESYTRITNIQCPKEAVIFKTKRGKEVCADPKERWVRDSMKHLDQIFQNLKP
The description is as above.

Another assay addresses rh MCP-3 (human, UniProt P80098 24-99). Described as above.
In a further assay the target is rh MCP-4 (human, UniProt Q99616 24-98). The assay is described as above.
Sequence of rh MCP-4 (Q99616 24-98 limits assumed): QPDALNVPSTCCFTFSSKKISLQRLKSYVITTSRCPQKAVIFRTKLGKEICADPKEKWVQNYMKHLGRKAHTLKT
Another assay has as its target T4, rh LEC (human, UniProt O15467 24-120).
T4 sequence (looked up): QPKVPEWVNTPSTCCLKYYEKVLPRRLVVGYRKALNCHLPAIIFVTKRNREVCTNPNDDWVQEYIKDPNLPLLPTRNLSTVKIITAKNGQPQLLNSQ
The assay is described as above.

The next assay deals with T5, rh RANTES (human, UniProt P13501 24-91).
T5 sequence (looked up): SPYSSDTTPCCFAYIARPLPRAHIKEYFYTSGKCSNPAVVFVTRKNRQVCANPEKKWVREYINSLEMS
Described as above.

Another assay has as its target T6, rh MIP-1α (human, UniProt P10147 27-92, limits assumed).
T6 sequence (looked up): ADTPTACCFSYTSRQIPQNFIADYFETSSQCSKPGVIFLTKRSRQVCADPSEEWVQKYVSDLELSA
Described as above.

A further assay addresses T7, rh MIP-1β (human, UniProt P13236 24-92).
T7 sequence (looked up): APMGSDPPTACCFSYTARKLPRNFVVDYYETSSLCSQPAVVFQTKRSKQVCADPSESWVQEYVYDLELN
The description is as above.

In assay [3] the target is T8, recombinant human eotaxin-1 (human, UniProt P51671 24-97).
T8 construct: also called rh eotaxin
T8 sequence (P51671 24-97 limits assumed): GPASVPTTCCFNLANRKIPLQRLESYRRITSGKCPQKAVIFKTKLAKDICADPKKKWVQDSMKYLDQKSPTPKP
The description is as above.

For assay [4], the target named is recombinant human MCP-1 (human) (UniProt P13500). As to the kind of experiment: SPA, inhibition of (125-I)-MCP-1 binding to membranes of CCR2B expressing CHO cells (CHO#84), three independent experiments.

Sequence of recombinant human MCP-1 (human) (P13500 24-99 limits assumed): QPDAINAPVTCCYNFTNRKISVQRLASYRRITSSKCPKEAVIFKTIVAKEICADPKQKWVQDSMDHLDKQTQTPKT
Sequence of Rec pig MCP-1 (P42831 24-99 limits assumed): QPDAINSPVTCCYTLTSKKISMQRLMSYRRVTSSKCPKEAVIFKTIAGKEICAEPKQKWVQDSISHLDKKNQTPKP
Sequence of Rec guinea pig MCP-1 (Q08782 24-120 limits assumed): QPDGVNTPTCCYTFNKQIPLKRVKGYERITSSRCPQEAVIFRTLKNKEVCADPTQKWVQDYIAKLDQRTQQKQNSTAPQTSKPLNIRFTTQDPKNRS
Sequence of Rec rat MCP-1 (P14844 24-148 limits assumed): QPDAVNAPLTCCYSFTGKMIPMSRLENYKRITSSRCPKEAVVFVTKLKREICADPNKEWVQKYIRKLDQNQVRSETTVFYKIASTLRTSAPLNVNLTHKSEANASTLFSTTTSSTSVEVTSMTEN
Sequence of rh MCP-3 (P80098 24-99 limits assumed): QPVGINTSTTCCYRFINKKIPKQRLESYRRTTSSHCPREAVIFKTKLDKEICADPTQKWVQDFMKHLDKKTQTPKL
T1 sequence (P13500 24-99 K72A limits assumed): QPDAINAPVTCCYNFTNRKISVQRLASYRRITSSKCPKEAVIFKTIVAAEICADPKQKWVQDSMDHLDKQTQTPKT

B1: ABN912 antibody (human IgG4/κ anti-human MCP-1 antibody) (antibody, V domains shown)
VH: EVQLVQSGGGLVQPGGSLRLSCAASGFTFSHYWMSWVRQAPGKGLEWLANIEQDGSEKYYVDSVKGRFTISRDNAKNSLYLQMNSLRAEDTAVYFCARDLEGLHGDGYFDLWGRGTLVTVSS
VL: AIQLTQSPSSLSASVGDRVILTCRASQGVSSALAWYQQKPGKAPKLLIYDASSLESGVPSRFSGSGSGPDFTLTISSLQPEDFATYFCQQFNSYPLTFGGGTKVEIK
Turning to B1, the Binding to ABN912 (percent compared to recombinant human MCP-1) was 100% in assay [1]; 6.2% with rh MCP-2; 4.3% with rh MCP-3; -2.4% with rh MCP-4; -2.8% with rh LEC; -2.7% with rh RANTES. The results for the “Binding to ABN912 (percent compared to recombinant human MCP-1)” value (with rh MIP-1α; in the assay with rh MIP-1β; in assay [3]) were -2.8%, -2.9% and 52.6%, respectively. Further, the Percent binding of ABN912 (compared to recombinant human MCP-1) in [1] is 100%; with Rec dog MCP-1, 1.3%; with Rec pig MCP-1 it was 0.5%; with Rec guinea pig MCP-1 it was 2.3%; with Rec mouse JE/MCP-1 it was -0.4%; in the assay with Rec rat MCP-1, -0.2%. Besides, in the assay with Rec rabbit MCP-1, the “Percent binding of ABN912 (compared to recombinant human MCP-1)” value stood at 0.9%. Further, in assay [2], the Kd (usually the equilibrium constant for the complex coming apart) turned out to be 43 pM. The dissociation rate constant (koff) (as a rule, the first-order rate constant of dissociation) in [2] came out at 0.0005 s⁻¹. In assay [2], the on-rate constant (kon) (commonly the second-order rate constant of association) came out at 1.3e+07 M⁻¹ s⁻¹. In addition, the “fold decrease of affinity (against MCP-1)” value with MCP-1 mutant K49A was determined as 133 fold. For the same molecule, the half-inhibitory concentration (IC50) (in general, the concentration needed to halve the response being measured) in assay [4] stood at 461 pM.
